# Source: patent publication US20230331828A1 (published 2023)
# Several values for one entry are separate records, joined by “and”; a condition that tells them apart may be missing. Equal entries are not always repeated.
# Tests used:
# [1] = biological target: T1, Aβ1-42 fibrils (human); assay: SPR (BIAcore T200); Aβ1-42 fibrils immobilized, Fab as analyte; global 1:1 fit; apparent KD
# T1 construct: Aβ1-42 polypeptide, HFIP-treated, incubated in 10 mM HCl at 37 C for 24 h, pelleted fibrillar fraction, sonicated; Multimeric fibril; also called fibril Aβ42; fibrillar Aβ42
# T1 sequence (peptide, as listed by the source): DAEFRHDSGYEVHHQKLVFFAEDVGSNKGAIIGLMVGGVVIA
# Protocol: (§1) Fibrils were immobilized on sensor chip CMS (GE Healthcare Life Sciences) via amine coupling to a level to ensure a maximum binding of analyte of approximately 100 RU. Various concentrations of antibodies or Fabs (ranging from 1 nM to 100 nM) were passed over the coupled ligand at 30 μL/min in running buffer (HBS+0.05% P-20, 1 mg/mL BSA) for 300 s association time and 1200 s dissociation time. Regeneration of the chip surface was accomplished by 2 short injections of 10 mM Glycine-HCl at pH 1.7. Data was blank-subtracted to both a sensor not containing ligand and 0 nM analyte concentration. Analysis was performed using a global 1:1 fit with BIAcore Insight Evaluation software (v2.0) with bulk refractive index set to zero RU.
# [2] = biological target: T1, Aβ1-42 fibrils; assay: SPR (BIAcore T200); Aβ1-42 fibrils immobilized, antibody as analyte; global 1:1 fit
# Protocol: (§2) Fibrils were immobilized on sensor chip CMS (GE Healthcare Life Sciences) via amine coupling to a level to ensure a maximum binding of analyte of approximately 50 RU. […] Regeneration of the chip surface was accomplished by 2 short injections of 10 mM Glycine-HCl pH 1.7. Data was blank subtracted to both a sensor not containing ligand and 0 nM analyte concentration. Analysis was performed using a global 1:1 fit with BIAcore Insight Evaluation software (v2.0) with bulk refractive index set to zero RU.
# [3] = biological target: T2, Aβ1-28 (human); assay: SPR (Biacore T200); antibody captured by anti-human Fc, Aβ1-28 as analyte; global 1:1 fit
# T2 construct: Bought peptide (Bachem); also called Aß1-28 monomer; A131-28
# T2 sequence (peptide, as listed by the source): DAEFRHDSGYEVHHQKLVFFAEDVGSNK
# Protocol: (§3) Determination of binding affinity of anti-Aß candidates to Aß₁₋₂₈ (Bachem, Torrance, CA) was performed using a Biacore T200. Anti-human Fc antibody was immobilized to a CM3 sensor chip (GE Healthcare Life Sciences) via amine coupling and used to capture Aß antibodies.
# (§4) Various concentrations of Aß₁₋₂₈ (analyte, ranging from concentrations of 100 nM down to 0.39 nM, serial diluted 2-fold each dilution step) were passed over the captured ligand at 50 μl/min in running buffer (HBS+0.05% P-20, 1 mg/mL BSA) for 240 s association time and 900 s dissociation time. Data were blank subtracted to both an irrelevant sensor not containing ligand, and buffer runs containing 0 nM analyte concentration. Analysis was performed using a global 1:1 fit with Biacore Evaluation software (v3.0).
# [4] = biological target: T2, Aβ1-28; assay: SPR (Biacore T200); antibody captured by anti-human Fc, Aβ1-28 as analyte; global 1:1 fit; apparent KD
# Protocol: as §3, §4
# [5] = biological target: T1, Aβ1-42 fibrils; assay: SPR (BIAcore T200); Aβ1-42 fibrils immobilized, antibody as analyte; global 1:1 fit; apparent KD (avidity)
# Protocol: as §2
# [6] = biological target: T1, Aβ1-42 fibrils; assay: competition ELISA; plate coated with fibril Aβ42; competitor hBP-biotin; IC50 of test divided by IC50 of hBP
# Protocol: To generate fibrils, Aβ 1-42 polypeptides, previously treated with HFIP (hexafluoroisopropanol) and dried, were resuspended in DMSO to 5 mM, then further diluted to 100 uM with 10 mM HCl. Samples were incubated at 37° C. for 24 h, and then centrifuged to separate soluble and fibrillar species. The pellet was the resuspended in 1×D-PBS to the original volume and sonicated before use.
# Plates were coated with 0.5 mg/ml of fibril Aβ 42 and blocked, e.g., with 1% BSA/PBS. […] 100 ul of GE Streptavidin HRP diluted 1/10,000 was then added and incubated for 30 minutes. Plates were then washed 6× with TTBS. Thermo Fisher o-phenylenediamine dihydrochloride (OPD) substrate was prepared fresh per manufacturers direction, and 100 ul per well was added. The reaction was incubated for 15 minutes and the reaction stopped with 50 ul 2N H₂SO₄.
# [7] = biological target: T3, Aβ pathology (plaques) in human AD brain tissue (human, UniProt P05067 672-713); assay: IHC on frozen human AD brain sections, brain AD 11-97; % stained area against antibody concentration (0.03-9 µg/ml)
# T3 construct: Native tissue deposits, heterogeneous; also called tissue Aβ pathology; Aβ plaques
# Protocol: (§5) Tissue Sectioning and Fixation. The unfixed frozen brain tissue samples were embedded in Tissue-Tek OCT (Sakura Finetek) in cryomolds dipped in a mixture of 2-methylbutane and dry ice slurry (−60° C.) then stored at −80° C. until sectioning. Serial 10 μm thick cryosections were generated using a Leica 3050S cryostat. The sections were directly thaw-mounted on positively charged glass slides and were stored at −20° C. until use. Prior to immunohistochemistry IHC procedures, the slides were immersed in 10% neutral buffered formalin solution for 10 minutes at 4° C., rinsed in PBS, then incubated for an hour at 37° C. in a glucose oxidase solution (20 mM beta D(+) glucose, 2 mM sodium azide, and 2 units/mL glucose oxidase in 1×PBS). The slides were rinsed 3 times for 5 minutes in PBS before they were transferred onto staining racks for processing in an automated stainer.
# (§6) Antibody biotinylation. The humanized IgG antibodies were biotinylated using a non-covalent method, by means of incubation with a biotin-conjugated goat anti-human monovalent fab fragment (Jackson ImmunoResearch) in a ratio of 1:4, for 1 hour at room temperature. Unbound excess Fab was absorbed by pre-incubation with human serum for an additional hour before use. The freshly prepared antibodies were then loaded into the stainer for immediate application to tissue sections.
# (§7) Immunostaining. The staining was performed in an automated Leica Bond Rx Stainer (Leica Biosystems), using the Bond Research Kit (DS980, Leica Biosystems) and the avidin-biotin amplified immuno-peroxidase detection system. Each biotinylated anti-Aβ antibody, or a human IgG control, was applied to the sections, at specified concentrations, for one hour and the staining was visualized using the avidin-biotin amplification system (ABC Elite Standard, PK-6100; Vector Laboratories). Hematoxylin counter-staining of nuclei was subsequently applied to sections before dehydration in an ascending series of alcohols, clearing in xylene, cover-slipping, and air-drying.
# [8] = biological target: T3, Aβ pathology (plaques) in human AD …; assay: IHC on frozen human AD brain sections, brain AD 13-75; % stained area against antibody concentration (0.03-9 µg/ml)
# Protocol: as §5, §6, §7
# [9] = biological target: T3, Aβ pathology (plaques) in human AD …; assay: IHC on frozen human AD brain sections, brain AD 14-11; % stained area against antibody concentration (0.03-9 µg/ml)
# Protocol: as §5, §6, §7
# [10] = biological target: T3, Aβ pathology (plaques) in human AD …; assay: IHC on frozen human AD brain sections, brain AD 15-19; % stained area against antibody concentration (0.03-9 µg/ml)
# Protocol: as §5, §6, §7
# [11] = biological target: T1, Aβ1-42 fibrils; assay: SPR (BIAcore T200); Aβ1-42 fibrils immobilized, Fab as analyte; global 1:1 fit
# Protocol: as §1
# [12] = biological target: soluble Aβ oligomers (Example 8) (UniProt P05067 672-713, biotin on the biotinylated preparation and on one tenth of the 9:1 mixture (position not given)); assay: direct ELISA; plate coated with soluble Aβ oligomers, antibody titrated
# Protocol: The samples were incubated for 2 hours at room temperature. Plates were washed 4 times with TBS. 0.1% tween 20. Goat anti-human (H+L) HRP (Jackson Immunoresearch, PA) was diluted 1/5000 in 0.1% BSA/PBS 0.1% tween 20, added at 100 μl/well and incubated 1 hour at room temperature. Plates were washed 4 times and o-phenylenediamine dihydrochloride tablets (ThermoFisher) were prepared as per manufacturer instructions. 100 μl was added per well and incubated for 15 minutes at room temperature. […] Curves and resulting EC₅₀ estimations represent nonlinear 3-parameter least-squares fit of data using GraphPad Prism software.
Binder,Kd [1],koff [2],kon [2],koff [3],kon [3],Kd [4],Kd [5],IC50 ratio (test:hBP) [6],Area Under Curve [7],Area Under Curve [8],Area Under Curve [9],Area Under Curve [10],koff [11],kon [11],EC50 [12]
"bapineuzumab Fab (Fab, V domains shown, also called hBP) VH: EVQLLESGGGLVQPGGSLRLSCAASGFTFSNYGMSWVRQAPGKGLEWVASIRSGGGRTYYSDNVKGRFTISRDNSKNTLYLQMNSLRAEDTAVYYCVRYDHYSGSSDYWGQGTLVTVSS VL: DVVMTQSPLSLPVTPGEPASISCKSSQSLLDSDGKTYLNWLLQKPGQSPQRLIYLVSKLDSGVPDRFSGSGSGTDFTLKISRVEAEDVGVYYCWQGTHFPRTFGQGTKVEIK",5.34 nM,,,,,,,,,,,,,,
"h2726 (antibody, V domains shown, Humanized IgG mAb; Only the variable domains are tied to the construct; also called PB-0573) VH: EVQLLESGGGLVQPGGSLRLSCAASGFTFSNYGMSWVRQAPGKGLEWVASIRSGSGRTYYSDNVKGRFTISRDNSKNTLYLQMNSLRAEDTAVYYCVRYDHYSGSSDYWGQGTLVTVSS VL: DVVMTQSPLSLPVTPGEPASISCKSSQSLLDYDGKTYLNWLLQKPGQSPQRLIYKVSNRDSGVPDRFSGSGSGTDFTLKISRVEAEDVGVYYCWQGTHFPRTFGQGTKVEIK",,2.12e-05 s⁻¹,393000 M⁻¹ s⁻¹,0.000555 s⁻¹,92300 M⁻¹ s⁻¹,6.01 nM,0.054 nM,0.68 ratio,50.2,149,149,52.1,,,
"h2726 Fab (Fab, V domains shown) VH: EVQLLESGGGLVQPGGSLRLSCAASGFTFSNYGMSWVRQAPGKGLEWVASIRSGSGRTYYSDNVKGRFTISRDNSKNTLYLQMNSLRAEDTAVYYCVRYDHYSGSSDYWGQGTLVTVSS VL: DVVMTQSPLSLPVTPGEPASISCKSSQSLLDYDGKTYLNWLLQKPGQSPQRLIYKVSNRDSGVPDRFSGSGSGTDFTLKISRVEAEDVGVYYCWQGTHFPRTFGQGTKVEIK",2.01 nM,,,,,,,,,,,,0.000259 s⁻¹,129000 M⁻¹ s⁻¹,
"h2831 (antibody, V domains shown, Humanized IgG mAb; also called PB-0575) VH: EVQLLESGGGLVQPGGSLRLSCAASGFTFSNFGMSWVRQAPGKGLEWVASVRSGSGRTYYSDNVKGRFTISRDNSKNTLYLQMNSLRAEDTAVYYCVRYDHYSGTSDYWGQGTLVTVSS VL: DVVMTQSPLSLPVTLGEPASISCKSSQSLLDYDGKTYLNWLLQKPGQSPQRLIYRVTNRDTGVPDRFSGSGSGTDFTLKISRVEAEDVGVYYCWQGTHFPRSFGQGTKVEIK",,2.94e-05 s⁻¹,265000 M⁻¹ s⁻¹,0.000508 s⁻¹,73100 M⁻¹ s⁻¹,6.95 nM,0.111 nM,0.77 ratio,49.2,139,149,49.7,,,
"h2831 Fab (Fab, V domains shown) VH: EVQLLESGGGLVQPGGSLRLSCAASGFTFSNFGMSWVRQAPGKGLEWVASVRSGSGRTYYSDNVKGRFTISRDNSKNTLYLQMNSLRAEDTAVYYCVRYDHYSGTSDYWGQGTLVTVSS VL: DVVMTQSPLSLPVTLGEPASISCKSSQSLLDYDGKTYLNWLLQKPGQSPQRLIYRVTNRDTGVPDRFSGSGSGTDFTLKISRVEAEDVGVYYCWQGTHFPRSFGQGTKVEIK",2.31 nM,,,,,,,,,,,,0.000248 s⁻¹,108000 M⁻¹ s⁻¹,
"h2931 (antibody, V domains shown, also called PB-0576) VH: EVQLLESGGGLVQPGGSLRLSCAASGFTFSNFGMSWVRQAPGKGLEWVASVRSGSGRTYYSDNVKGRFTISRDNSKNTLYLQMNSLRAEDTAVYYCVRYDHYTGTSDYWGQGTLVTVSS VL: DVVMTQSPLSLPVTLGEPASISCKSSQSLLDYDGKTYLNWLLQKPGQSPQRLIYRVTNRDTGVPDRFSGSGSGTDFTLKISRVEAEDVGVYYCWQGTHFPRSFGQGTKVEIK",,2.05e-05 s⁻¹,335000 M⁻¹ s⁻¹,0.000412 s⁻¹,94700 M⁻¹ s⁻¹,4.35 nM,0.0612 nM,0.59 ratio,47.7,139,134,44.8,,,0.023 µg/mL and 0.15 nM
"h2931 Fab (Fab, V domains shown) VH: EVQLLESGGGLVQPGGSLRLSCAASGFTFSNFGMSWVRQAPGKGLEWVASVRSGSGRTYYSDNVKGRFTISRDNSKNTLYLQMNSLRAEDTAVYYCVRYDHYTGTSDYWGQGTLVTVSS VL: DVVMTQSPLSLPVTLGEPASISCKSSQSLLDYDGKTYLNWLLQKPGQSPQRLIYRVTNRDTGVPDRFSGSGSGTDFTLKISRVEAEDVGVYYCWQGTHFPRSFGQGTKVEIK",1.62 nM,,,,,,,,,,,,0.000199 s⁻¹,123000 M⁻¹ s⁻¹,
"h2731 Fab (Fab, V domains shown) VH: EVQLLESGGGLVQPGGSLRLSCAASGFTFSNYGMSWVRQAPGKGLEWVASIRSGSGRTYYSDNVKGRFTISRDNSKNTLYLQMNSLRAEDTAVYYCVRYDHYSGSSDYWGQGTLVTVSS VL: DVVMTQSPLSLPVTLGEPASISCKSSQSLLDYDGKTYLNWLLQKPGQSPQRLIYRVTNRDTGVPDRFSGSGSGTDFTLKISRVEAEDVGVYYCWQGTHFPRSFGQGTKVEIK",2.24 nM,,,,,,,,,,,,0.000289 s⁻¹,129000 M⁻¹ s⁻¹,
